Target: T1, NG2 (nerve/glial antigen 2) proteoglycan (human (endogenous in HuAoSMC and G361), UniProt Q6UVK1 30-2322)
T1 construct: NG2 proteoglycan (CSPG4), transmembrane surface proteoglycan, endogenous on human cells; also called high-molecular melanoma associated antigen; CSPG4; source: endogenous, on human aortic smooth muscle cells (HuAoSMC) and G361-melanoma cells
Assay: radioligand binding; increasing concentrations of 123I-tTF-TAA on cultivated HuAoSMC, gamma counter; nonlinear fit of total binding (GraphPad Prism 6: one site - total binding), an approximation
Conditions: one partner purified

T1 sequence (Q6UVK1 30-2322): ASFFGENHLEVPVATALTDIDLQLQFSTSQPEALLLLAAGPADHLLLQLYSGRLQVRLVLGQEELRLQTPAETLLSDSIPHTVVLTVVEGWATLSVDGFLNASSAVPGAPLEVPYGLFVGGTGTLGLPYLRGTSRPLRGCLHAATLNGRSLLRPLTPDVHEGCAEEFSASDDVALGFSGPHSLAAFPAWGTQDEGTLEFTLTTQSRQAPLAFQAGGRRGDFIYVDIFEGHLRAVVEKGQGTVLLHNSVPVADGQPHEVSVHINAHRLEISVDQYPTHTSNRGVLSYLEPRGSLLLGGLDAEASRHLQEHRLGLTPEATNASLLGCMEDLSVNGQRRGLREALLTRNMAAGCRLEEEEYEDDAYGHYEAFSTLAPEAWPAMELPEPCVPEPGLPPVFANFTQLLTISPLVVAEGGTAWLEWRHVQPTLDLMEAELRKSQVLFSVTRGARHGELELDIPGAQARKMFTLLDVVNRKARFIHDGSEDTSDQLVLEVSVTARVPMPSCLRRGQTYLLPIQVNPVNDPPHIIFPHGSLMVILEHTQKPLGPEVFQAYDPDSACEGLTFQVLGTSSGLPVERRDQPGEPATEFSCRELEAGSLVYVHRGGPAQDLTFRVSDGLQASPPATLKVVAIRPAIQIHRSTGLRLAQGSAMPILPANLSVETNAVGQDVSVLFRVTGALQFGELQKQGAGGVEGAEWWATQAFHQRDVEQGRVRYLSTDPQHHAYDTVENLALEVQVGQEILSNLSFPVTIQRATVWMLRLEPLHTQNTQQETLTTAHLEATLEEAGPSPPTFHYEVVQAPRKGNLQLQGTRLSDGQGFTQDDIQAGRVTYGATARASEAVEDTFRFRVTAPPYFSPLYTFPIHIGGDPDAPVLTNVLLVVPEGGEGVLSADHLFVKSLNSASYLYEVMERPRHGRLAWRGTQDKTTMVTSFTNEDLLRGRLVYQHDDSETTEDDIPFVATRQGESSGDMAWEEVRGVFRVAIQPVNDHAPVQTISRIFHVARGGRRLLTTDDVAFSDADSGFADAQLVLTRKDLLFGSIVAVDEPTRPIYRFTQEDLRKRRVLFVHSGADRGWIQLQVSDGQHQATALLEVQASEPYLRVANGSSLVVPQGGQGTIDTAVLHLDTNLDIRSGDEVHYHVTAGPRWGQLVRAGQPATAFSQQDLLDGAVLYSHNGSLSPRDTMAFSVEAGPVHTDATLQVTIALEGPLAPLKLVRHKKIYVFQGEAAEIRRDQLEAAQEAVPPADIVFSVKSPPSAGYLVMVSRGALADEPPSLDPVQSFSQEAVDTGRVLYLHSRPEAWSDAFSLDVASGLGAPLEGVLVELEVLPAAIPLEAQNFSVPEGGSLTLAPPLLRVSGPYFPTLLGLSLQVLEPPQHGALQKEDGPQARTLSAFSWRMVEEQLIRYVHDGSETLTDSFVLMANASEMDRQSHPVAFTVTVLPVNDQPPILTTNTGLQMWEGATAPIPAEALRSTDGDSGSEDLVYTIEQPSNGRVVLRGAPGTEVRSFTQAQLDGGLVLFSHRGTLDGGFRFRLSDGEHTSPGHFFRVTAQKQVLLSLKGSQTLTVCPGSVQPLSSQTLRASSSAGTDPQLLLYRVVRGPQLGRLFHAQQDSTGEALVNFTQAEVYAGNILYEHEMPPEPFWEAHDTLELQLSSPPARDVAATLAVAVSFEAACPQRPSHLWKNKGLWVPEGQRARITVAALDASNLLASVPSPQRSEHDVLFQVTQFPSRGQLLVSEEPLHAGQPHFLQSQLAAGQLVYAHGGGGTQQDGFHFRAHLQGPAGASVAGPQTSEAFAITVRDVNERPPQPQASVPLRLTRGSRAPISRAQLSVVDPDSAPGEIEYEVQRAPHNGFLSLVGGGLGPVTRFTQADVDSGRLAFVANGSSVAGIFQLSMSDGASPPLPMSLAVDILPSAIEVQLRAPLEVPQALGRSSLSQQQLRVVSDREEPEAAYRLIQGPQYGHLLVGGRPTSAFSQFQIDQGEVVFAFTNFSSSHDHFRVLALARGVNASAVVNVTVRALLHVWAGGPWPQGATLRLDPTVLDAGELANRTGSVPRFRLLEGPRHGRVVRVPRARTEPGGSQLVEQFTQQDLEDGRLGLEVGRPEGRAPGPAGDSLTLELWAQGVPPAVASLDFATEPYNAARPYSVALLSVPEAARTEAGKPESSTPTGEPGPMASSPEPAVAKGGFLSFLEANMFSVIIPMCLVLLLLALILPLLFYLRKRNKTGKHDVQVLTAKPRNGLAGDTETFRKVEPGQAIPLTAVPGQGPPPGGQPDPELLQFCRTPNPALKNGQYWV

Kd: ~785 nM
B1: 123I-tTF218-TAA (other)
chain: SGTTNTVAAYNLTWKSTNFKTILEWEPKPVNQVYTVQISTKSGDWKSKCFYTTDTECDLTDEIVKDVKQTYLARVFSYPAGNVESTGSAGEPLYENSPEFTPYLETNLGQPTIQSFEQVGTKVNVTVEDERTLVRRNNTFLSLRDVFGKDLIYTLYYWKSSSSGKKTAKTNTNEFLIDVDKGENYCFSVQAVIPSRTVNRKSTDSPVECMGQEKGEFRTAASGVRSMH
modifications: 123I (iodinated; residues not stated)
